Laboratory results reported in patent US20230220021A1 (UNIVERSITY OF COPENHAGEN, published 2023).
[ ]: non-standard residue; d: D form.

B1: cyclic nNOS β-hairpin peptide L107A (peptide)
peptide: cyclo(THAETTFTGDGTPKTIRVTQ[dP]GQ)
SMILES: CC[C@H](C)[C@@H]1NC(=O)[C@H]([C@@H](C)O)NC(=O)[C@H](CCCCN)NC(=O)[C@@H]2CCCN2C(=O)[C@H]([C@@H](C)O)NC(=O)CNC(=O)[C@H](CC(=O)O)NC(=O)CNC(=O)[C@H]([C@@H](C)O)NC(=O)[C@H](Cc2ccccc2)NC(=O)[C@H]([C@@H](C)O)NC(=O)[C@H]([C@@H](C)O)NC(=O)[C@H](CCC(=O)O)NC(=O)[C@H](C)NC(=O)[C@H](Cc2c[nH]cn2)NC(=O)[C@H]([C@@H](C)O)NC(=O)[C@H](CCC(N)=O)NC(=O)CNC(=O)[C@H]2CCCN2C(=O)[C@H](CCC(N)=O)NC(=O)[C@H]([C@@H](C)O)NC(=O)[C@H](C(C)C)NC(=O)[C@H](CCCNC(=N)N)NC1=O
B2: cyclic nNOS β-hairpin peptide Q124A (peptide)
peptide: cyclo(THLETTFTGDGTPKTIRVTA[dP]GQ)
SMILES: CC[C@H](C)[C@@H]1NC(=O)[C@H]([C@@H](C)O)NC(=O)[C@H](CCCCN)NC(=O)[C@@H]2CCCN2C(=O)[C@H]([C@@H](C)O)NC(=O)CNC(=O)[C@H](CC(=O)O)NC(=O)CNC(=O)[C@H]([C@@H](C)O)NC(=O)[C@H](Cc2ccccc2)NC(=O)[C@H]([C@@H](C)O)NC(=O)[C@H]([C@@H](C)O)NC(=O)[C@H](CCC(=O)O)NC(=O)[C@H](CC(C)C)NC(=O)[C@H](Cc2c[nH]cn2)NC(=O)[C@H]([C@@H](C)O)NC(=O)[C@H](CCC(N)=O)NC(=O)CNC(=O)[C@H]2CCCN2C(=O)[C@H](C)NC(=O)[C@H]([C@@H](C)O)NC(=O)[C@H](C(C)C)NC(=O)[C@H](CCCNC(=N)N)NC1=O
B3: cyclic nNOS β-hairpin peptide T110A (peptide)
peptide: cyclo(THLETAFTGDGTPKTIRVTQ[dP]GQ)
SMILES: CC[C@H](C)[C@@H]1NC(=O)[C@H]([C@@H](C)O)NC(=O)[C@H](CCCCN)NC(=O)[C@@H]2CCCN2C(=O)[C@H]([C@@H](C)O)NC(=O)CNC(=O)[C@H](CC(=O)O)NC(=O)CNC(=O)[C@H]([C@@H](C)O)NC(=O)[C@H](Cc2ccccc2)NC(=O)[C@H](C)NC(=O)[C@H]([C@@H](C)O)NC(=O)[C@H](CCC(=O)O)NC(=O)[C@H](CC(C)C)NC(=O)[C@H](Cc2c[nH]cn2)NC(=O)[C@H]([C@@H](C)O)NC(=O)[C@H](CCC(N)=O)NC(=O)CNC(=O)[C@H]2CCCN2C(=O)[C@H](CCC(N)=O)NC(=O)[C@H]([C@@H](C)O)NC(=O)[C@H](C(C)C)NC(=O)[C@H](CCCNC(=N)N)NC1=O
B4: cyclic nNOS β-hairpin peptide T112A (peptide)
peptide: cyclo(THLETTFAGDGTPKTIRVTQ[dP]GQ)
SMILES: CC[C@H](C)[C@@H]1NC(=O)[C@H]([C@@H](C)O)NC(=O)[C@H](CCCCN)NC(=O)[C@@H]2CCCN2C(=O)[C@H]([C@@H](C)O)NC(=O)CNC(=O)[C@H](CC(=O)O)NC(=O)CNC(=O)[C@H](C)NC(=O)[C@H](Cc2ccccc2)NC(=O)[C@H]([C@@H](C)O)NC(=O)[C@H]([C@@H](C)O)NC(=O)[C@H](CCC(=O)O)NC(=O)[C@H](CC(C)C)NC(=O)[C@H](Cc2c[nH]cn2)NC(=O)[C@H]([C@@H](C)O)NC(=O)[C@H](CCC(N)=O)NC(=O)CNC(=O)[C@H]2CCCN2C(=O)[C@H](CCC(N)=O)NC(=O)[C@H]([C@@H](C)O)NC(=O)[C@H](C(C)C)NC(=O)[C@H](CCCNC(=N)N)NC1=O
B5: cyclic nNOS β-hairpin peptide P117A (peptide)
peptide: cyclo(THLETTFTGDGTAKTIRVTQ[dP]GQ)
SMILES: CC[C@H](C)[C@@H]1NC(=O)[C@H]([C@@H](C)O)NC(=O)[C@H](CCCCN)NC(=O)[C@H](C)NC(=O)[C@H]([C@@H](C)O)NC(=O)CNC(=O)[C@H](CC(=O)O)NC(=O)CNC(=O)[C@H]([C@@H](C)O)NC(=O)[C@H](Cc2ccccc2)NC(=O)[C@H]([C@@H](C)O)NC(=O)[C@H]([C@@H](C)O)NC(=O)[C@H](CCC(=O)O)NC(=O)[C@H](CC(C)C)NC(=O)[C@H](Cc2c[nH]cn2)NC(=O)[C@H]([C@@H](C)O)NC(=O)[C@H](CCC(N)=O)NC(=O)CNC(=O)[C@H]2CCCN2C(=O)[C@H](CCC(N)=O)NC(=O)[C@H]([C@@H](C)O)NC(=O)[C@H](C(C)C)NC(=O)[C@H](CCCNC(=N)N)NC1=O
B6: cyclic nNOS β-hairpin peptide T105A (peptide)
peptide: cyclo(AHLETTFTGDGTPKTIRVTQ[dP]GQ)
SMILES: CC[C@H](C)[C@@H]1NC(=O)[C@H]([C@@H](C)O)NC(=O)[C@H](CCCCN)NC(=O)[C@@H]2CCCN2C(=O)[C@H]([C@@H](C)O)NC(=O)CNC(=O)[C@H](CC(=O)O)NC(=O)CNC(=O)[C@H]([C@@H](C)O)NC(=O)[C@H](Cc2ccccc2)NC(=O)[C@H]([C@@H](C)O)NC(=O)[C@H]([C@@H](C)O)NC(=O)[C@H](CCC(=O)O)NC(=O)[C@H](CC(C)C)NC(=O)[C@H](Cc2c[nH]cn2)NC(=O)[C@H](C)NC(=O)[C@H](CCC(N)=O)NC(=O)CNC(=O)[C@H]2CCCN2C(=O)[C@H](CCC(N)=O)NC(=O)[C@H]([C@@H](C)O)NC(=O)[C@H](C(C)C)NC(=O)[C@H](CCCNC(=N)N)NC1=O
B7: cyclic nNOS β-hairpin peptide T116A (peptide)
peptide: cyclo(THLETTFTGDGAPKTIRVTQ[dP]GQ)
SMILES: CC[C@H](C)[C@@H]1NC(=O)[C@H]([C@@H](C)O)NC(=O)[C@H](CCCCN)NC(=O)[C@@H]2CCCN2C(=O)[C@H](C)NC(=O)CNC(=O)[C@H](CC(=O)O)NC(=O)CNC(=O)[C@H]([C@@H](C)O)NC(=O)[C@H](Cc2ccccc2)NC(=O)[C@H]([C@@H](C)O)NC(=O)[C@H]([C@@H](C)O)NC(=O)[C@H](CCC(=O)O)NC(=O)[C@H](CC(C)C)NC(=O)[C@H](Cc2c[nH]cn2)NC(=O)[C@H]([C@@H](C)O)NC(=O)[C@H](CCC(N)=O)NC(=O)CNC(=O)[C@H]2CCCN2C(=O)[C@H](CCC(N)=O)NC(=O)[C@H]([C@@H](C)O)NC(=O)[C@H](C(C)C)NC(=O)[C@H](CCCNC(=N)N)NC1=O
B8: cyclic nNOS β-hairpin peptide R121A (peptide)
peptide: cyclo(THLETTFTGDGTPKTIAVTQ[dP]GQ)
SMILES: CC[C@H](C)[C@@H]1NC(=O)[C@H]([C@@H](C)O)NC(=O)[C@H](CCCCN)NC(=O)[C@@H]2CCCN2C(=O)[C@H]([C@@H](C)O)NC(=O)CNC(=O)[C@H](CC(=O)O)NC(=O)CNC(=O)[C@H]([C@@H](C)O)NC(=O)[C@H](Cc2ccccc2)NC(=O)[C@H]([C@@H](C)O)NC(=O)[C@H]([C@@H](C)O)NC(=O)[C@H](CCC(=O)O)NC(=O)[C@H](CC(C)C)NC(=O)[C@H](Cc2c[nH]cn2)NC(=O)[C@H]([C@@H](C)O)NC(=O)[C@H](CCC(N)=O)NC(=O)CNC(=O)[C@H]2CCCN2C(=O)[C@H](CCC(N)=O)NC(=O)[C@H]([C@@H](C)O)NC(=O)[C@H](C(C)C)NC(=O)[C@H](C)NC1=O

Molecular target: T1, (7× His)-PSD-95-PDZ2 wild type (UniProt P78352 160-246)
T1 construct: domain: PDZ2; recombinant from E. coli; also called PSD-95-PDZ2 WT; not shown: 7x His tag
T1 sequence (P78352 160-246): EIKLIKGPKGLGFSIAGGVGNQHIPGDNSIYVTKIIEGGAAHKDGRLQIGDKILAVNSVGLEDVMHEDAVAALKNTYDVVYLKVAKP
Test: FP competition

| Ki [nM] | Relative Ki (Ki mut/Ki WT) | Binder |
| --- | --- | --- |
| 3540 | 2.36 | B1 |
| 1510 | 1.01 | B2 |
| 3930 | 2.62 | B3 |
| 1770 | 1.18 | B4 |
| 1610 | 1.07 | B5 |
| 1500 | 1 | B6 |
| 1240 | 0.83 | B7 |
| 2470 | 1.65 | B8 |
